# According to PMC6861513, “Insight into the dimer dissociation process of the Chromobacterium violaceum (S)-selective amine transaminase” (Scientific Reports, 2019):
# B1: Chromobacterium violaceum (S)-selective amine transaminase, wild type (enzyme)
# chain: MQKQRTTSQWRELDAAHHLHPFTDTASLNQAGARVMTRGEGVYLWDSEGNKIIDGMAGLWCVNVGYGRKDFAEAARRQMEELPFYNTFFKTTHPAVVELSSLLAEVTPAGFDRVFYTNSGSESVDTMIRMVRRYWDVQGKPEKKTLIGRWNGYHGSTIGGASLGGMKYMHEQGDLPIPGMAHIEQPWWYKHGKDMTPDEFGVVAARWLEEKILEIGADKVAAFVGEPIQGAGGVIVPPATYWPEIERICRKYDVLLVADEVICGFGRTGEWFGHQHFGFQPDLFTAAKGLSSGYLPIGAVFVGKRVAEGLIAGGDFNHGFTYSGHPVCAAVAHANVAALRDEGIVQRVKDDIGPYMQKRWRETFSRFEHVDDVRGVGMVQAFTLVKNKAKRELFPDFGEIGTLCRDIFFRNNLIMRACGDHIVSAPPLVMTRAEVDEMLAVAERCLEEFEQTLKARGLA
# notes: omega-transaminase / (S)-selective amine transaminase of Chromobacterium violaceum, GenBank WP_011135573, in pET28a(+); No tag cleavage is described; also called Cv-ATA; Cv-TA; source: E. coli BL21(DE3), purified (HisTrap FF crude, gel filtration on Superdex 200)
# Target: the molecule itself
# Assay: crystal structure; PMP·Cv-ATA; holo-Cv-ATA crystals grown by sitting drop in 100 mM HEPES pH 7.5, 350 mM NaCl, 22.5% PEG 4000, 0.1 mM PLP, cryoprotected with 20 mM 1-(S)-phenylethylamine; space group P1; 1.67 Å
protein,measurement,value
B1,binding result,binds
